Experimental data as given in article PMC3139607.

Columns and labels:
[1] = target: two-domain (2D) soluble CD4 (amino acids 1 to 183) (human); assay: ELISA; hybridoma culture supernatants diluted 1:1 on solid-phase 2D-CD4, gp120 (Ba-L) or the 2D-CD4/gp120 (Ba-L) complex; values qualitative
[2] = target: 2D-CD4-gp120 (Ba-L) complex (human | HIV-1 isolate Ba-L); assay: as above

B1: MAb DB81 (antibody, V domains shown)
VH: EVQLQQSGPELVKPGASVKISCKASGYSFTDYTMLWVKQSHGKSLEWIGNINPYYDTTTYNLNFKGKATMTVDKSSSTAYMQLNSLTSEDSAVYYCAREGDYGHPFAYWGQGTLVTVSS
VL: DIVMTQSHKFMSTSVGDRVSITCKASQDVSTTVAWYQQKPGQSPKLLIYSASYRYTGVPDRFTGSGSGTDFTFTISSVQAEDLAVYYCQQHYSTPPTFGGGTKLEIR
Binder B1 has a Binding to CD4 (ELISA reading) [1] of 1.23 and a Binding to CD4-gp120 (ELISA reading) [2] of 2.
